From patent US20250304677A1 (VIB VZW, published 2025)

Assays:
[1] = molecular target: T1, mouse folate receptor alpha (mFRα), recombinant protein (mouse, UniProt P35846 25-232); assay: ELISA, periplasmic extract
T1 construct: Bought recombinant proteins (e.g. biotinylated, Acro Biosystems FO1-M82E9); also called mFOLR1; Ms FOLR1
Excerpt: (§1) From the lymphocytes of each llama a separate VHH library was constructed to select and screen for the presence of antigen-specific VHHs. To this end, total RNA from peripheral blood lymphocytes was used as template for first strand cDNA synthesis with an oligo ^{∘}dT) primer. Using this cDNA, the VHH encoding sequences were amplified by PCR, digested with PstI and NotI, cloned into the PstI and NotI sites of the phagemid vector pMECS and transformed into E. coli to generate VHH libraries. To enrich these libraries for FRα ^{∘}or FOLR1, as used interchangeably herein)-specific VHHs, a combinatorial panning approach on recombinant human and mouse FOLR1 was used followed by random selection and screening of clones by ELISA for the presence of antigen-specific VHHs in their periplasmic extracts ^{∘}PEs). In order to gauge the cross-reactivity for human and mouse FOLR1, each clone was tested on both antigens.
(§2) After panning of core76/77 on human and mouse folate receptor alpha ^{∘}FRα), […] were randomly selected from the second and third rounds and analyzed by ELISA on both human and mouse FRα for the presence of FRα-specific VHHs in their periplasmic extracts ^{∘}PE). This led to the identification of 98 hits. For these 98 hits, the off-rate ^{∘}koff) in the PE was determined by biolayer interferometry ^{∘}BLI) on both mouse and human FRα that was directly immobilized onto AR2G biosensors. The off-rates were calculated using a 1:1 binding model. […] Abbreviations: SE: standard error.

[2] = molecular target: T2, human folate receptor beta (FRβ) (human, UniProt P14207 17-230, limits assumed); assay: method not named (follows the ELISA of Example 3)
T2 construct: also called hFOLR2; human FOLR2
T2 sequence (P14207 17-230 limits assumed): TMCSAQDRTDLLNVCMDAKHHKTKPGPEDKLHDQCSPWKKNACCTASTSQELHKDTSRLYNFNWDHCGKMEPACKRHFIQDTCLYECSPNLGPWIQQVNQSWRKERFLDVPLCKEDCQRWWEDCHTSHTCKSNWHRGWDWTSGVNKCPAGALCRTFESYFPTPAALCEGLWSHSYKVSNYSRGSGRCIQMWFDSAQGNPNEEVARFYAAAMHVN

[3] = molecular target: T1, mouse folate receptor alpha (mFRα), …; assay: BLI, FRα on AR2G biosensors, 1:1 model
Experimental: As a next step, the kinetic binding constants were determined using BLI ^{∘}Table 3). […] Similar to the ELISA results ^{∘}FIG. 1A-B), higher binding affinities were measured for mouse FRα than human FRα, with KD values […] one order of magnitude in most cases. […] For 3HFO28, binding to human FRα could not be confirmed by BLI, and this VHH was excluded from further characterization.
The kinetic parameters were calculated using a 1:1 binding model.

[4] = molecular target: T1, mouse folate receptor alpha (mFRα), …; assay: BLI, periplasmic extract, FRα on AR2G biosensors
Experimental: as §2

[5] = molecular target: T3, human folate receptor alpha (hFRα), recombinant protein (human, UniProt P15328 25-233); assay: ELISA, periplasmic extract; unpurified periplasmic extract, PE-ELISA (ratio of coated to uncoated well)
T3 construct: Bought recombinant proteins (His-tagged, or biotinylated via Avi-tag, e.g. AcroBiosystems FO1-H82E2, F01-H52H1); also called hFOLR1; huFOLR1
T3 sequence (P15328 25-233 limits assumed): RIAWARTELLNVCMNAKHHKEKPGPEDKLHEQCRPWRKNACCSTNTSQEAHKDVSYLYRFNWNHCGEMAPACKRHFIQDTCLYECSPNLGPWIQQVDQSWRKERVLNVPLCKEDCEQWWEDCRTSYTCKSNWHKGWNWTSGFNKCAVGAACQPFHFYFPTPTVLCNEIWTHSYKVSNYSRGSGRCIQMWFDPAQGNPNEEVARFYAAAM
Excerpt: as §1, with “In order to gauge the cross-reactivity for human and mouse FOLR1, each clone was tested on both antigens.” left out
After panning of core76/77 on human and mouse folate receptor alpha ^{∘}FRα), 95 colonies were randomly selected from the second and third rounds and analyzed by ELISA on both human and mouse FRα for the presence of FRα-specific VHHs in their periplasmic extracts ^{∘}PE). […] For these 98 hits, the off-rate ^{∘}koff) in the PE was determined by biolayer interferometry ^{∘}BLI) on both mouse and human FRα that was directly immobilized onto AR2G biosensors. The off-rates were calculated using a 1:1 binding model. […]

[6] = molecular target: T3, human folate receptor alpha (hFRα), …; assay: BLI, periplasmic extract, FRα on AR2G biosensors; unpurified periplasmic extract, BLI off-rate screen
Experimental: as §2

[7] = molecular target: T3, human folate receptor alpha (hFRα), …; assay: ELISA on recombinant human FOLR1, cMyc tag detection, normalised binding, non-linear fit
Experimental: (§3) Data were normalized and technical replicates were plotted as mean±SD. Data were fitted by non-linear regression and the half-maximal effective concentration ^{∘}EC50) was calculated using GraphPad Prism 9 software. ^{∘}FIG. 1C and FIG. 1D) Binding affinity determination of anti-FOLR1 VHHs for native FOLR1. Mouse ^{∘}FIG. 1C) or human FOLR1 FIG. 1D) was overexpressed on HEK293T cells and binding of the anti-FOLR1 VHHs was assessed using flow cytometry. The mean fluorescence intensity ^{∘}MFI) of the phycoerythrin signal was plotted for each VHH concentration. Data were fitted by non-linear regression using GraphPad Prism 9 software. ^{∘}FIG. 1E) Determination of the competition of representative family members with folic acid ^{∘}FA) using ELISA. Mouse FOLR1 was coated on the plate and was pre-incubated with or without 100 μM FA before adding the VHHs. Data were fitted by non-linear regression using GraphPad Prism 9 software.
(§4) In a first step, binding affinity and cross-reactivity of the purified VHHs to human and mouse FRα was assessed by ELISA, using detection of the cMyc tag ^{∘}FIG. 1A-B). […] 2HFO19 ^{∘}family 1) was the best binder of all tested VHHs to both mouse and human FRα with an EC₅₀ of 0.1 nM and 0.4 nM respectively ^{∘}FIG. 1A-B).

[8] = molecular target: T1, mouse folate receptor alpha (mFRα), …; assay: ELISA on recombinant mouse FOLR1, cMyc tag detection, normalised binding, non-linear fit
Experimental: as §3, §4

[9] = molecular target: T1, mouse folate receptor alpha (mFRα), …; assay: method of this value not stated (ELISA, BLI and FACS named)
[10] = molecular target: T1, mouse folate receptor alpha (mFRα), …; assay: BLI, biotinylated FOLR1 on streptavidin biosensors
Experimental: (§5) The off-rates of the 2HFO9 ^{∘}FIG. 5A) and 2MFR67 ^{∘}FIG. 5B) mutants and the three wild-type ^{∘}WT) VHHs from family 3 were determined by biolayer interferometry ^{∘}BLI) on both mouse and human biotinylated folate receptor alpha ^{∘}FOLR1) that was immobilized on streptavidin biosensors. The off-rates were calculated using a 1:1 binding model. The fold change compared to the off-rates of the corresponding WT VHH is represented as the WT VHH off-rate divided by the off-rate of the mutant for the VHHs that show an improved off-rate compared to the WT. For the VHHs that show a worse off-rate compared to the WT, the fold change is represented as the negative value of the mutant VHH off-rate divided by the WT off-rate. The red bars represent the WT 2HFO9 and 2MFR67 in the upper and lower panel respectively.

[11] = molecular target: T3, human folate receptor alpha (hFRα), …; assay: BLI, biotinylated FOLR1 on streptavidin biosensors
Experimental: as §5

T1 sequence (P35846 25-232 limits assumed): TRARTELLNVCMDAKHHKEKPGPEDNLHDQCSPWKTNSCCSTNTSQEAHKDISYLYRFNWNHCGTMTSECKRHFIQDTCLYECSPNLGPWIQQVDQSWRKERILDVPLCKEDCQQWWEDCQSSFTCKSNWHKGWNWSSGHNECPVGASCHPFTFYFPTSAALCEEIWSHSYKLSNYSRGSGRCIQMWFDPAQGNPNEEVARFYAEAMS

B1: VHH 3HFO28 (family 7) (VHH)
VHH: QVQLQESGGGLVQPGGSLRLSCAASGSTLDRYEIGWFRQAPGKGRERVSCISTTSSTYEDSVKGRFTISRDNAKNTVYLQMNSLKPEDTAVYYCATVRVAWSTCFPTGDSWGKGTQVTVSS
PE-ELISA (ratio to uncoated well) [1]: 34.9 | binding result [2]: no binding | Kd [3]: 0.0126 µM | koff [3]: 0.00582 s⁻¹ | kon [3]: 464000 M⁻¹ s⁻¹ | koff [4]: 0.00425 s⁻¹ | PE-ELISA (ratio to uncoated well) [5]: 35.6 | koff [6]: 0.00827 s⁻¹ | EC50 [7]: 0.0015 µM | EC50 [8]: 0.0843 µM

B2: 2HFO42-NT (2HFO42 fused to neurotensin) (VHH)
VHH: QVQLQESGGGLVQAGGSLRLSCAASGSGFSGMIMGWYRQVPGKQRELVATVTSHGTTNYADSVKGRFTISRDNAKNTVLLQMNSLKPEDTAVYYCNAHFPGIYWGKGTQVTVSS
Kd [9]: 0.0233 µM | Fold to 2HF042 (koff) [10]: 1 | koff [10]: 0.00222 s⁻¹ | Fold hu/ms (koff) [11]: 7 | koff [11]: 0.0154 s⁻¹
